Legend:
[1] = target: T1, cell permeable human non-Casp1 cleavable Sirt1 polypeptide (NC-Sirt1)
T1 chain: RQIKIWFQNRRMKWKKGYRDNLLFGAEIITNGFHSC

[2] = target: T2, sirtuin 1 (human Sirt1, endogenous in human aortic endothelial cells), Q96EB6
T2 chain: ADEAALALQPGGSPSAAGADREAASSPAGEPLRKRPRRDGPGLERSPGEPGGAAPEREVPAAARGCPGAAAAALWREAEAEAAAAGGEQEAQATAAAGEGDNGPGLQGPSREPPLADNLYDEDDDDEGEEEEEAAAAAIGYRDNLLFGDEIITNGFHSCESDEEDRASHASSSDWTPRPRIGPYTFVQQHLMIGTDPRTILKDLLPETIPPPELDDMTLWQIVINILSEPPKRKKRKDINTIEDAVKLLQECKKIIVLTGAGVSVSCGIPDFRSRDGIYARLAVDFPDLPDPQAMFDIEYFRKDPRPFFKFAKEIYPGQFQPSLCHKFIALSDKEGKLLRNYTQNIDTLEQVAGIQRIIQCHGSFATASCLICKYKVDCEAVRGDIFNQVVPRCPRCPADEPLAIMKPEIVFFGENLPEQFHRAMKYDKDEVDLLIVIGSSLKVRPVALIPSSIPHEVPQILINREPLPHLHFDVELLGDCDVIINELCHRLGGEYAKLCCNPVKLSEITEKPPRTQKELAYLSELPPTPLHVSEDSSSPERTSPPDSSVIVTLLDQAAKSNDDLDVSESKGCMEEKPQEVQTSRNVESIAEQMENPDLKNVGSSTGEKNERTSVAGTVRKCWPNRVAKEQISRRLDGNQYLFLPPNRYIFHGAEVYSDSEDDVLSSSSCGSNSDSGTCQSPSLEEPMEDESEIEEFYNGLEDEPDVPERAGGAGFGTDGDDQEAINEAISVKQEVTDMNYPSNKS

B1: caspase-1 (human, endogenous in human aortic endothelial cells) (protein)
chain: NPAMPTSSGSEGNVKLCSLEEAQRIWKQKSAEIYPIMDKSSRTRLALIICNEEFDSIPRRTGAEVDITGMTMLLQNLGYSVDVKKNLTASDMTTELEAFAHRPEHKTSDSTFLVFMSHGIREGICGKKHSEQVPDILQLNAIFNMLNTKNCPSLKDKPKVIIIQACRGDSPGVVWFKDSVGVSGNLSLPTTEEFEDDAIKKAHIEKDFIAFCSSTPDNVSWRHPTMGSVFIGRLIEHMQEYACSCDVEEIFRKVRFSFEQPDGRAQMPTTERVTLTRCFYLFPGH
cleaved-Sirt1 expression by Western blot with anti-Sirt1 antibody in oxLDL-treated HAECs [1]: NC-Sirt1 dose-dependently decreases the cleavage of Sirt1 induced by oxLDL
cleaved-Sirt1 expression by Western blot in HAECs treated with oxLDL [2]: oxLDL induced the expression of cleaved-Sirt1 by 2.4-folds in HAECs

Reference: patent US20180015152
